Reference: paper PMC4027978

How the values were obtained:
[1] = molecular target: GFP-FR (Folate Receptor), GPI-anchored, in MDCK cells; assay: Number and Brightness
Number and Brightness = conditions: other: Number and Brightness (N&B) analysis
GFP-FR, in CHO cells = assay: Number and Brightness

| Substance | average B value (brightness) [1] | percent of GFP-FR in aggregates of three-four molecules (Number and Brightness) | average B value (brightness) (GFP-FR, in CHO cells) | percent of GFP-FR in clusters of 3 to 4 or 5 molecules (GFP-FR, in CHO cells) [%] |
| --- | --- | --- | --- | --- |
| GFP-FR (Folate Receptor), GPI-anchored, in MDCK cells | 1.29 | about 30-35% of GFP-FR |  |  |
| GFP-FR, in CHO cells |  |  | 1.36 | 50 |
